Measurements taken from patent publication US20170355757A1 (Regeneron, published 2017).
Each block holds one binder with its values, some of them ahead of it.

Experiments:
monkey C5-mmh [1] = biological target: T1, monkey C5-mmh (monkey, UniProt P01031 19-1676 (human entry), limits assumed); experiment: SPR (Biacore), mAb captured, dissociation of monkey C5 at pH7.4 vs pH6.0, 25°C
T1 construct: recombinant, with C-terminal myc-myc-hexahistidine tag
T1 chain: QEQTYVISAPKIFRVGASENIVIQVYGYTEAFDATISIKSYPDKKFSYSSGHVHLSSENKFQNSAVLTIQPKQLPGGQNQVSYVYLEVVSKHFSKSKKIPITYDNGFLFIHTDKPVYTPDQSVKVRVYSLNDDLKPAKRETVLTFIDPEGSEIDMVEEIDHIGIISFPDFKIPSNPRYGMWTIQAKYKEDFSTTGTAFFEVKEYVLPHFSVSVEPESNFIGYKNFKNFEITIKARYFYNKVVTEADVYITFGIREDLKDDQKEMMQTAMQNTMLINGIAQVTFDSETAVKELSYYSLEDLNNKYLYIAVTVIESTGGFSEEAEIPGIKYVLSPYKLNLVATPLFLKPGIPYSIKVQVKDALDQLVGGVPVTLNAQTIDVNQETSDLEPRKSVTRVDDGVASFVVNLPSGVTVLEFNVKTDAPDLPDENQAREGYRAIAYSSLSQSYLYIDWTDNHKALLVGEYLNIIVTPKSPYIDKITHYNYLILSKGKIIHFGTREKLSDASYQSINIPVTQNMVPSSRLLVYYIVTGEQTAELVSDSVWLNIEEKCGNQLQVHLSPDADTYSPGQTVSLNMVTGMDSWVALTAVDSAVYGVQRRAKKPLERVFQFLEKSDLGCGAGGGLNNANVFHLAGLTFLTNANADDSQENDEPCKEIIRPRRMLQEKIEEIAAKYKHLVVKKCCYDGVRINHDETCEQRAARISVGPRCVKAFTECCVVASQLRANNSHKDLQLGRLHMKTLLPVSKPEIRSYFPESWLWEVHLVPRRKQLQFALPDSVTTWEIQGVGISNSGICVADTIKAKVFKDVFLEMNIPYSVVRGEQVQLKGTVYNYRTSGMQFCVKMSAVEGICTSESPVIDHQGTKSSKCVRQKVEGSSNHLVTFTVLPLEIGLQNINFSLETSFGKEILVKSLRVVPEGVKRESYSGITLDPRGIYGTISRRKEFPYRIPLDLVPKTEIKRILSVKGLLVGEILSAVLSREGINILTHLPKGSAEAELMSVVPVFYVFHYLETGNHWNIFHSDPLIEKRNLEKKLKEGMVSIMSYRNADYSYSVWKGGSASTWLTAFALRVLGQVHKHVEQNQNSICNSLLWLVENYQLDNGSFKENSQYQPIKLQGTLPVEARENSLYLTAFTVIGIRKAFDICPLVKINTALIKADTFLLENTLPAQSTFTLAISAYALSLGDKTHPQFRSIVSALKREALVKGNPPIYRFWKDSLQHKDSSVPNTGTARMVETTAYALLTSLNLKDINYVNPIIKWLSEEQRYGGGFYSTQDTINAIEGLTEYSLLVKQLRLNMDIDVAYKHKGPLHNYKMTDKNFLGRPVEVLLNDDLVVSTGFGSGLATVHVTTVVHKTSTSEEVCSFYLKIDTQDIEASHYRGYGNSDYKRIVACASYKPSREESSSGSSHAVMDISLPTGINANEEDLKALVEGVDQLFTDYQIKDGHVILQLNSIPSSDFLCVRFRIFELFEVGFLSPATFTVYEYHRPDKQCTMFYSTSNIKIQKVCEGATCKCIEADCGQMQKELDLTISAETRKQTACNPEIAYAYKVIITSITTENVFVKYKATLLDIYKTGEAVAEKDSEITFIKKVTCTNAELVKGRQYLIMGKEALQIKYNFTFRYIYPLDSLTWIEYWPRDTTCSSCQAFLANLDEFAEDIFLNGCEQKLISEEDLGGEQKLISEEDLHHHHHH

Cynomolgus monkey C5 = Cynomolgus monkey C5 (cynomolgus monkey, UniProt A0A2K5U1T1 19-1676); experiment: cell-based or functional assay
African green monkey C5 [2] = biological target: T2, African green monkey C5 (African green monkey); experiment: cell-based or functional assay
monkey C5-mmh [3] = biological target: T1, monkey C5-mmh; experiment: SPR (Biacore), mAb captured, dissociation of monkey C5 at pH7.4 vs pH6.0, 37°C
human C5 R885C-mmh = human C5 R885C-mmh (human, UniProt P01031 19-1676); experiment: cell-based or functional assay
human C5 [4] = biological target: T3, human C5 (human, UniProt P01031 19-1676); experiment: cell-based or functional assay
African green monkey C5 [5] = biological target: T2, African green monkey C5; experiment: cell-based or functional assay; remark: listed apart in the source
human C5 R885H-mmh = human C5 R885H-mmh (human, UniProt P01031 19-1676); experiment: cell-based or functional assay
human C5 [6] = biological target: T3, human C5; experiment: cell-based or functional assay; remark: listed apart in the source
human C5 [7] = biological target: T3, human C5; experiment: SPR (Biacore), mAb captured, dissociation of human C5 at pH7.4 vs pH6.0, 37°C
Protocol: Effect of pH on the rate of dissociation of recombinant human C5 bound to purified anti-C5 monoclonal antibodies was determined using a real-time surface plasmon resonance biosensor using a Biacore T200 instrument. The Biacore sensor surface was first derivatized by amine coupling with a monoclonal mouse anti-human Fc antibody (GE, # BR-1008-39) to capture anti-C5 monoclonal antibodies expressed with human IgG4 Fc. All Biacore binding studies were performed using two running buffers PBS-T, pH7.4 (0.01M Na₂HPO₄/NaH₂PO₄, 0.15M NaCl, 0.05% v/v Tween-20, adjusted to pH7.4) and PBS-T, pH6.0 (0.01M Na₂HPO₄/NaH₂PO₄, 0.15M NaCl, 0.05% v/v Tween-20, adjusted to pH6.0). […] Binding dissociative half-lives (t %) were calculated from kd as: […]

t½ Ratio pH7.4/pH6.0 (monkey C5-mmh [1]): 9.7
t½ Ratio pH7.4/pH6.0 (monkey C5-mmh [3]): 3.3
IC50, inhibition of CDC of Daudi cells, C5 depleted human serum and 6.6 nM C5 Variant R885C (human C5 R885C-mmh): 1.1 nM
IC50, inhibition of CDC of Daudi cells, 1.66% human serum (human C5 [4]): 3.4 nM
IC50, inhibition of CDC of Daudi cells, 1.66% African Green monkey serum (African green monkey C5 [5]): 3.7 nM
IC50, inhibition of CDC of Daudi cells, C5 depleted human serum and 6.6 nM C5 Variant R885H (human C5 R885H-mmh): 2.1 nM
t½ Ratio pH7.4/pH6.0 (human C5 [7]): 0.8
B1: H4H12163P (antibody, human IgG4, V domains shown)
VH: EVQLVESGGDLVQPGGSLRLSCAASGFTFSSYAMNWVRQGPGKGLEWVSAISGRGDSTYYADSVKGRLTISRDNSKNTLYLQMNSLRAEDTAVYYCVKEGEQLVYWYFDLWGRGTLVTVSS
VL: DIQMTQSPSSLSASVGDRVTITCRASQTISNFLHWYQQKPGKAPKLLIYAASSLQSGVPSRFSGSGSGTDFTLTISSLQPEDFSTYFCQQSYTTPLTFGGGTKVEIK
notes: H4H: human IgG4 Fc with S108P hinge mutation
Cyno AP % Max Inhibition, hemolysis assay, 5% serum (Cynomolgus monkey C5): 98.5%
Cyno CP % Max Inhibition, hemolysis assay, 5% serum (Cynomolgus monkey C5): 96.4%
Cyno Serum AP IC50, hemolysis assay, 5% serum (Cynomolgus monkey C5): 10.2 nM
Cyno Serum CP IC50, hemolysis assay, 5% serum (Cynomolgus monkey C5): 16.5 nM
AGM AP % Max Inhibition, hemolysis assay, 5% serum (African green monkey C5 [2]): 58.5%
AGM CP % Max Inhibition, hemolysis assay, 5% serum (African green monkey C5 [2]): 83.2%
AGM Serum AP IC50, hemolysis assay, 5% serum (African green monkey C5 [2]): 216 nM
AGM Serum CP IC50, hemolysis assay, 5% serum (African green monkey C5 [2]): 69 nM
Human AP % Max Inhibition, hemolysis assay, NHS (human C5 [6]): 66%
Human AP IC50, hemolysis assay, NHS (human C5 [6]): 20.5 nM
Human CP % Max Inhibition, hemolysis assay, NHS (human C5 [6]): 96.1%
Human CP IC50, hemolysis assay, NHS (human C5 [6]): 2.72 nM

t½ Ratio pH7.4/pH6.0 (monkey C5-mmh [1]): 3.7
t½ Ratio pH7.4/pH6.0 (monkey C5-mmh [3]): 1.5
IC50, inhibition of CDC of Daudi cells, C5 depleted human serum and 6.6 nM C5 Variant R885C (human C5 R885C-mmh): 1.6 nM
IC50, inhibition of CDC of Daudi cells, 1.66% human serum (human C5 [4]): 2.2 nM
IC50, inhibition of CDC of Daudi cells, 1.66% African Green monkey serum (African green monkey C5 [5]): 6.1 nM
IC50, inhibition of CDC of Daudi cells, C5 depleted human serum and 6.6 nM C5 Variant R885H (human C5 R885H-mmh): 2.4 nM
t½ Ratio pH7.4/pH6.0 (human C5 [7]): 1.3
B2: H4H12177P2 (antibody, human IgG4, V domains shown)
VH: EVQLVESGGGVVQRGESLRLSCSASDFIFKDYAMYWVRQIPGKGLEWISLISGDGDTTWYGDSVKGRFTISRDNNENSLFLQMNDLRTEDTAMYYCARDMGWNFFQLQYWGQGTLVTVSS
VL: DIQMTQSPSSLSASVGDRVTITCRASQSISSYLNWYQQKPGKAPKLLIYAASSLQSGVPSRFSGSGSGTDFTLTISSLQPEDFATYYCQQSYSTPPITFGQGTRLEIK
notes: as for B1
Cyno AP % Max Inhibition, hemolysis assay, 5% serum (Cynomolgus monkey C5): 98.1%
Cyno CP % Max Inhibition, hemolysis assay, 5% serum (Cynomolgus monkey C5): 94.9%
Cyno Serum AP IC50, hemolysis assay, 5% serum (Cynomolgus monkey C5): 8.8 nM
Cyno Serum CP IC50, hemolysis assay, 5% serum (Cynomolgus monkey C5): 17.1 nM
AGM AP % Max Inhibition, hemolysis assay, 5% serum (African green monkey C5 [2]): 8.8%
AGM CP % Max Inhibition, hemolysis assay, 5% serum (African green monkey C5 [2]): 80.6%
AGM Serum AP IC50, hemolysis assay, 5% serum (African green monkey C5 [2]): 101 nM
AGM Serum CP IC50, hemolysis assay, 5% serum (African green monkey C5 [2]): 180 nM
Human AP % Max Inhibition, hemolysis assay, NHS (human C5 [6]): 71%
Human AP IC50, hemolysis assay, NHS (human C5 [6]): 17 nM
Human CP % Max Inhibition, hemolysis assay, NHS (human C5 [6]): 97.5%
Human CP IC50, hemolysis assay, NHS (human C5 [6]): 2.34 nM
